Data on 1 molecule can be found in patent US20170306005A1 (NASCIENT, published 2017).

Experiment [1] concerns the target T1, mouse tenascin-C rCd4-His-FBG (rat; mouse, UniProt P05540 207-392, limits assumed).
T1 construct: domain: domains 3 and 4; C-terminal FBG fusion; biotinylated in the ELISA screen; also called Mu TNC; mouse TNC rCd4-His-FBG; not shown: 6His tag
T1 sequence (chain (part 1 of 2)): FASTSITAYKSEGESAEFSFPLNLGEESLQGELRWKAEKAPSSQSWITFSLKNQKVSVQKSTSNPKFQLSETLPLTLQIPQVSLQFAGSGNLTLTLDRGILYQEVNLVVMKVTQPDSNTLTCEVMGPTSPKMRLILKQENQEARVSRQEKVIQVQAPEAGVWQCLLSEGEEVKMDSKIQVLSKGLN
T1 sequence (chain (part 2 of 2)): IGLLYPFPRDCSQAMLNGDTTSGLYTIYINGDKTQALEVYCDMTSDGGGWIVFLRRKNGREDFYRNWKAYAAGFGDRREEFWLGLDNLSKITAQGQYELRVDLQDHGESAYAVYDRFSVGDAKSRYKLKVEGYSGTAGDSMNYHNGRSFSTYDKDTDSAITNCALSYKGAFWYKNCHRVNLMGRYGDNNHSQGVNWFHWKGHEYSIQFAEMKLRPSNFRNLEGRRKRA
The experiment in a line: SPR off-rate screen, captured IgG4 supernatant, 25 C. Summed up:
(§1)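 SPR at 25 °C: IgG4 (S241P) from culture supernatant, diluted 1:2 in 2×PBS-T, captured on anti-human Fc surface; antigen injected at a fixed 15 nM (human and mouse TNC rCd4-His-FBG) or 100 nM (human TNR rCd4-His-FBG), 30 μl/min. Association 1 min, dissociation 5 min; off-rates from reference-subtracted 1:1 fits.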

In experiment [2] the target is T2, human tenascin-C rCd4-His-FBG (rat; human, UniProt P05540 207-392, limits assumed).
T2 construct: domain: domains 3 and 4; C-terminal FBG fusion; biotinylated in the ELISA and HTRF screens; also called Hu TNC; human TNC rCd4-His-FBG; not shown: 6His tag
T2 sequence (chain (part 1 of 2)): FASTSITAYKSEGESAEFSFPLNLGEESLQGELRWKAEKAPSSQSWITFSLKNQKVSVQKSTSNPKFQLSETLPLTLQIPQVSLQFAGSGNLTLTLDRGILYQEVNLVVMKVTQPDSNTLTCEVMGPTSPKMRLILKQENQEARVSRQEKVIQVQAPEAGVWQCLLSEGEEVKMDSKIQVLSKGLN
T2 sequence (chain (part 2 of 2)): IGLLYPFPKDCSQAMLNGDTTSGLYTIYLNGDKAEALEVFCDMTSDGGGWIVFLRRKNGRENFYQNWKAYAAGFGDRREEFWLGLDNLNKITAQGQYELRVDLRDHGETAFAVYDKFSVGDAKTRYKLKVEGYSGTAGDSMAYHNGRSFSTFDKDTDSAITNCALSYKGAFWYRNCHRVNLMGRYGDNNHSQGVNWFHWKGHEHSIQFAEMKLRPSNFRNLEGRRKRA
The description is as above. Summed up: as §1

Experiment [3] addresses T3, human tenascin-R rCd4-His-FBG (rat; human, UniProt P05540 207-392, limits assumed).
T3 construct: domain: domains 3 and 4; C-terminal FBG fusion; also called Hu TNR; human TNR rCd4-His-FBG; not shown: 6His tag
T3 sequence (chain (part 1 of 2)): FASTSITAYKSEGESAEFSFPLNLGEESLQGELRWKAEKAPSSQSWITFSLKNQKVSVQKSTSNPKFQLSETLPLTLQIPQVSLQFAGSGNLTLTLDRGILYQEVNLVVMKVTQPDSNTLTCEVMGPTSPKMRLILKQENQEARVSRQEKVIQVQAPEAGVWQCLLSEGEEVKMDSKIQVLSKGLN
T3 sequence (chain (part 2 of 2)): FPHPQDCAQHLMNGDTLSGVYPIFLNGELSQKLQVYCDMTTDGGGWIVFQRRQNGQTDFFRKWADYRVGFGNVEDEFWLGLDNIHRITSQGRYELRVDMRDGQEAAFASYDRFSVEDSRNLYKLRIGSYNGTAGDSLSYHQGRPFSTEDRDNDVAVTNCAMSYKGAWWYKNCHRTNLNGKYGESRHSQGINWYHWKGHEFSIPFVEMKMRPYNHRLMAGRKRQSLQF
Briefly: SPR off-rate screen, captured IgG4 supernatant, 25 C; off-rate screen, IgG4 in culture supernatant, 100 nM TNR antigen, 25 C. How it is done:
The 31 scFv of interest were sub-cloned into a human IgG4 expression vector for generation of antibodies as human IgG4 with a hinge-stabilising mutation (S241P; Angal et al, 1993). […] Briefly, surface plasmon resonance (SPR) experiments were performed using a BIAcore T100 instrument and followed the protocol according to the Human antibody capture kit protocol (GE, BR-1008-39). For off-rate screening, 10,000 response units (RU) of anti-human Fc IgG (GE, BR-1008-39) was immobilised on flow-cells (FC1 and FC2) of a Series 5 CM5 dextran sensor chip (BR-1005-30) using EDC/NHS cross-linking chemistry according to the amine coupling kit protocol (GE, BR-1000-50). Culture supernatants containing expressed IgG4 were diluted 1:2 with 2×PBS-T and injected into FC2 (flowrate 5 μl/min, 60 s contact time) to enable antibody capture at 25° C. […] A fixed concentration of antigen (15 nM of human and mouse TNC rCd4-His-FBG and 100 nM of human TNR rCd4-His-FBG) was injected with a flow-path via FC 1 (reference flow cell) and FC 2 (antibody capture flow cell), with a flow rate of 30 μl/min, and the association and dissociation phases measured over 1 and 5 min time periods, respectively. […] Off rates were determined by reference cell subtraction and fitting the sensogram experimental data assuming a 1:1 interaction using BIAevaluation software (GE, BR-1005-97).

B1: 165_13_C3 human IgG4 (antibody, V domains shown)
VH: QVQLVESGGGLVQPGRSLRLSCAASGFTFDDYAMHWVRQAPGKGLEWVSGISGSGGSTYYADSVKGRFTISRDNAKNSLYLQMNSLRAEDTALYYCAKSYQSDEDAFDIWGQGTMVTVSS
VL: DIQMTQSPASLPTPVGDRVTITCRASQYIQGFLNWYQQKPGKAPKLLIYDASNLETGVPSRFSGSGSGTDFTLTISSLQPEDFATYYCQQSYSTPQTFGQGTKVDIKR
notes: also called IgG4 C3; C3 IgG4 MAb
As to B1, the koff in experiment [1] is 3.3e-06 s⁻¹; in experiment [2], < 1e-05 s⁻¹; in experiment [3], 0.012 s⁻¹.
